{
  "source": "patent US7871610B2",
  "about": "“Antibodies to Tie1 ectodomain” (Dyax Corp., priority 2003, dated 2011)",
  "molecules": {"B1": {"name": "E3: human anti-Tie1 antibody from Fab phage library; HC SEQ ID NO:114, LC SEQ ID NO:116 (antibody, V domains shown)", "VH": "EVQLLESGGGLVQPGGSLRLSCAASGFTFSMYGMVWVRQAPGKGLEWVSVISPSGGNTGYADSVKGRFTISRDNSKNTLYLQVNSLRAEDTAVYYCARAPRGYSYGYYYWGQGTLVTVSSASTKGPSVFPLAPSSKSTSGG", "VL": "DIQMTQSPLSLSASVGDRVTITCRASQGIGHYLAWYQQKPGKVPKLLIYTASTLQSGVPSRFSGSGSGTDFTLTINSLQPEDVATYYCQQFNSYPHTFGQGTRLDIK", "modifications": "Synthetically generated peptide"}},
  "key": {"[1]": {"target": "T1, Mouse Tie 1-Fc (Mus musculus, UniProt Q06806)", "T1 sequence (Q06806 23-755 limits assumed)": "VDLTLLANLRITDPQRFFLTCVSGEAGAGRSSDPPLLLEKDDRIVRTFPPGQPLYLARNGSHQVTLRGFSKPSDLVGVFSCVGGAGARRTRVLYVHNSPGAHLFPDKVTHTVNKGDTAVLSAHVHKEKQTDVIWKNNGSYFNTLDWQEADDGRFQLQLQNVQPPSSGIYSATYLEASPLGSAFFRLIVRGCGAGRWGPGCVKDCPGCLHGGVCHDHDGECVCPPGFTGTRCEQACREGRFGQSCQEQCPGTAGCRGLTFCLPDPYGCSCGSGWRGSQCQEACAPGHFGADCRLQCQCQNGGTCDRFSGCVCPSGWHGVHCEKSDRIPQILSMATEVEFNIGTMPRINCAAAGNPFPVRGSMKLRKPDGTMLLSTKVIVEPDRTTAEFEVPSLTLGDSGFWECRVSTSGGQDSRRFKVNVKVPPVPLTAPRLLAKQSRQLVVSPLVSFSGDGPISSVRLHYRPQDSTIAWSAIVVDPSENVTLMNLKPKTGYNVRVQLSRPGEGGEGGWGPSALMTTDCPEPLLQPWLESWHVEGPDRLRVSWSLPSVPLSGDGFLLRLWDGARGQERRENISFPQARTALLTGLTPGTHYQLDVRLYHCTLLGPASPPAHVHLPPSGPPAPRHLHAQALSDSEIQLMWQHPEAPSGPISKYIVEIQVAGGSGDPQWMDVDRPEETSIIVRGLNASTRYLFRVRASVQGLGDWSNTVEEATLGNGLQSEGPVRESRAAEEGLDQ", "test": "BIAcore, E3 Fabs on mouse Tie1-Fc", "format": "binding", "conditions": "Fab, mouse Tie1-Fc", "procedure": "Mouse Tie 1-Fc antigen (0.5 mg/ml stock) was biotinylated using established procedures and after dilution 1/100 fold in HBS this was then used for capturing to a streptavidin chip. This was coated to a resonance value of 740RU. All analysis was performed in HBS buffer. The parental Fab E3 0.587 mg/ml (11740 nM) was diluted 1/587 in HBS+BSA to obtain a stock of 20 nM and the germlined Fab E3 0.025 mg/ml (500 nM) was diluted 1/25 in HBS+BSA to obtain a stock of 20 nM. Serial dilutions were made of each Fab preparation to obtain 10 nM, 5 nM, 2.5 nM, and 1.25 nM. For the association phase samples were injected at 30 μl/min for 4 minutes using kinject program. This was followed by a 10 minutes dissociation phase, any remaining sample was stripped from the Tie-1 Fc surface at a flow of 50 μl/min with a single injection of 50 mM NaOH+1 M NaCl for 18 seconds. All samples were run and analyzed in duplicate.\nSensorgrams were analyzed using the simultaneous ka/kd fitting program with 1:1 model in the BIAEVALUATION™ software 3.1."}, "[2]": {"test_system": "bFGF-induced angiogenesis", "test": "[…] plug assay, bFGF-induced angiogenesis in NMRI nu/nu mice", "format": "in vivo, mouse", "procedure": "The germlined variant of the E3 IgG antibody was evaluated in an in vivo assay for angiogenesis induced by bFGF in […]™ plugs. Growth factor reduced […]™ (BD Biosciences, catalog # 354230) was supplemented with 80 ng/ml of bFGF (R&D Systems, catalog #234-FSE). The A2-SV or an IgG4 E3 antibody (10 μg/ml) or PBS was injected subcutaneously into the abdominal area of NMRI nu/nu mice (150 μl of Matrigel/plug).\nIn the first assay, two mice were injected with […]™ supplemented with bFGF and soluble VEGFR-1 (10 μg/ml) as a positive control for an angiogenic inhibitor. At day 7 post-implantation mice were anesthetized and perfused through heart with 4% paraformaldehyde (PFA) in phosphate buffered saline (PBS). […]™ plugs and a piece of liver were removed and embedded in paraffin. Sections were cut and stained with hematoxylin and eosin (H&E).\nIn a second assay, mice were treated as described above, and then anesthetized eight days post-implantation and injected with fluorescein-conjugated tomato (lycopersicon esculentum) lectin (100 μg in 200 μl of PBS; Vector, catalog #FL-1171) into the tail vein. After five min circulation the animals were perfused through the heart with 10 ml of PBS followed by 10 ml of 4% PFA in PBS. […]™ plugs and pieces of kidney and liver were removed and frozen in OCT (Tissue-Tek). Nuclei were visualized on sections by using […]® mounting medium containing DAPI (Vector) and analyzed under fluorescence microscopy."}, "[3]": {"target": "Tie1 (Homo sapiens, UniProt P35590)", "sequence (P35590 22-1138)": "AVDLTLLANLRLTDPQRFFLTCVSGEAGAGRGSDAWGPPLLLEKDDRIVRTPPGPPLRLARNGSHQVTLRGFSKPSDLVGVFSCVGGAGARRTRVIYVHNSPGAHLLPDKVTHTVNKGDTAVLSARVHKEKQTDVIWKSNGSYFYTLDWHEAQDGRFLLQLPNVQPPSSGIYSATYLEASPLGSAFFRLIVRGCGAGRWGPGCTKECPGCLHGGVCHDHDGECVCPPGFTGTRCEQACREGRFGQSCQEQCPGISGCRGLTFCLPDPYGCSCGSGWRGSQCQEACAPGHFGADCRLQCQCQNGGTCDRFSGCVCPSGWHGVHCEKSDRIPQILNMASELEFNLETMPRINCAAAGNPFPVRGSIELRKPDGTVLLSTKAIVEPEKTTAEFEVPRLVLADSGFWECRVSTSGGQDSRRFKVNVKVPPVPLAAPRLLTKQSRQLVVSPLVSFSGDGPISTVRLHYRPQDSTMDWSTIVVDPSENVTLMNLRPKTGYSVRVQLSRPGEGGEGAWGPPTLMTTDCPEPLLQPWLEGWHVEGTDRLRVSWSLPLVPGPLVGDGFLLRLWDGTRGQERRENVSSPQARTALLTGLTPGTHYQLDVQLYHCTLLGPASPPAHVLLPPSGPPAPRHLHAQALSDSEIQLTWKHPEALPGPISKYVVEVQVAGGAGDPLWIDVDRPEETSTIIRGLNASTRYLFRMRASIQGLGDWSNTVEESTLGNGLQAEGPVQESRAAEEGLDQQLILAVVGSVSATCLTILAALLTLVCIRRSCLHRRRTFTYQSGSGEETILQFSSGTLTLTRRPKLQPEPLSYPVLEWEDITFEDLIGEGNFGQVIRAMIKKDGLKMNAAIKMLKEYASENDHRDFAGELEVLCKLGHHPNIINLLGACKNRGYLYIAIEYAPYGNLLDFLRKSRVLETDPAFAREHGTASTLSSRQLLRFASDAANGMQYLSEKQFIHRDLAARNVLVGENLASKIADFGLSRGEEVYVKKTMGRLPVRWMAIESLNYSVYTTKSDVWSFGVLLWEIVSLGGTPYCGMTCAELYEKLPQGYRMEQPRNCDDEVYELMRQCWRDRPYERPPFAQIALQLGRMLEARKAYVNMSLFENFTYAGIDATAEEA", "test": "Tie1 phosphorylation assay in transfected COS1 cells", "format": "cell-based", "conditions": "COS1 cells with V5-tagged full length Tie1, serum starved, E3 IgG 200 ng/ml", "procedure": "COS1 cells were transfected with pcDNA3-Tie1-V5. After 24 h of transfection, the cells were serum starved for 8 h and then treated with E3 IgG. For the Tie1 phosphorylation assay, HDMVECs were cultured on 10 cm dishes to near confluence, starved (8-16 h) in serum free medium and stimulated as indicated. After the stimulations, the cells were lysed in lysis buffer (RIPA-DOC: 50 mM Tris-HCl pH 8.0, 150 mM NaCl, 1% Triton-X-100, 0.1% SDS, 0.5% DOC, 10 mM EDTA, supplemented with aprotinin, leupeptin, PMSF and sodium vanadate). Clarified lysates from transfected COS1 cells or HDMVECs were immunoprecipitated with anti-V5 or anti-Tie1 B9, respectively. Proteins were separated by SDS-PAGE, transferred to nitrocellulose and immunoblotted using the anti-phosphotyrosine and anti-Tie1 (R&D systems) antibodies.\nTo test if the E3 IgG binding to the extracellular region of Tie1 induces autophosphorylation of Tie1, the Tie1 receptor phosphorylation level in response to E3 IgG treatment was studied in transiently transfected COS1 cells and human primary endothelial cells. COS1 cells were transfected with an expression vector containing a V5-tagged full length Tie1 cDNA, and, after serum starvation, the cells were treated with E3 IgG (200 ng/ml). […]"}},
  "data": [
    {"molecule": "B1", "values": [
      {"measurement": "effect of germlining on binding activity", "setting": "[1]", "value": "minimal effect on the binding activity"},
      {"measurement": "bFGF-induced angiogenesis in vivo", "setting": "[2]; conclusion from the two experiments", "value": "can inhibit bFGF-induced angiogenesis in vivo"},
      {"measurement": "vessel-like structures in MATRIGEL plugs (H&E staining)", "setting": "[2]; first assay, day 7, bFGF 80 ng/ml, antibody 10 μg/ml in plug, E3 = germlined variant, IgG4", "value": "neither modification of the matrix nor organization of the cells"},
      {"measurement": "fluorescein-lectin staining of MATRIGEL plugs", "setting": "[2]; second assay, eight days post-implantation, antibody 10 μg/ml in plug", "value": "no staining could be detected"},
      {"measurement": "time of stimulation after which Tie1 is tyrosine phosphorylated", "setting": "[3]", "value": "10 to 30", "unit": "min"}
    ]}
  ]
}
